Results from patent US20240336907A1, “NOVEL ENDO-ß-N-ACETYLGLUCOSAMINIDASE” (priority 2020, published 2024).

Columns and labels:
(Fucα1,6)GlcNAc-mAb2 [1] = assay: One-pot method with various sugar chain donors, Endo-Rp N172H and Endo-Si D241M/Q311L; type: biochemical; conditions: donor 50 eq., Endo-Rp N172H 8 μg, Endo-Si D241M/Q311L 10 μg, 28° C., pH 7.5
Experimental: Transglycosylation activity was evaluated as follows. […] When SGP was used as a donor, the transglycosylation rate was calculated in accordance with the formula for computation described in Example 5.

(Fucα1,6)GlcNAc-mAb2 [2] = assay: One-pot method: Endo-Rp mutant enzymes (enzyme A) combined with Endo-Si D241Q, SGP donor; type: biochemical; conditions: Endo-Rp mutant enzyme 8 μg with Endo-Si D241Q 5 μg, SGP (50 eq.), 28° C., pH 7.5
Experimental: Using Endo-Rp, which is known to transfer a sugar chain from a sugar chain donor, SGP, to a GlcNAc derivative, as a representative of enzyme A, the property of enzyme A that can be used in combination with Endo-Si was investigated.
The transglycosylation activity on an antibody by the one-pot method was evaluated as follows. A 50 mM (sodium) phosphorate buffer (pH 7.5) solution (17 μL) containing (Fucα1,6)GlcNAc-mAb2 (0.5 mg), SGP (0.485 mg (50 eq.)), Endo-M N175Q (manufactured by Tokyo Kasei Kogyo Co., Ltd.) (2.5 mU) or each of various Endo-Rp mutant enzymes (8 μg) and Endo-Si D241Q (5 μg) was prepared and incubated at 28° C. A sample was taken from each of the reaction solutions at 2, 4, 6, 24, and 48 hours after initiation of the reaction and analyzed for protein by a fully automated electrophoresis system as mentioned above. In the chromatogram obtained, the transglycosylation rate was calculated in accordance with the formula for computation described in Example 5.

Molecule	Transglycosylation rate (%) ((Fucα1,6)GlcNAc-mAb2 [1]; 2 h)	Transglycosylation rate (%) ((Fucα1,6)GlcNAc-mAb2 [1]; 4 h)	Transglycosylation rate (%) ((Fucα1,6)GlcNAc-mAb2 [1]; 6 h)	Transglycosylation rate (%) ((Fucα1,6)GlcNAc-mAb2 [1]; 24 h)	Transglycosylation rate (%) ((Fucα1,6)GlcNAc-mAb2 [1]; 48 h)	Change in transglycosylation rate (%) with time ((Fucα1,6)GlcNAc-mAb2 [2]; 2 h) [%]	Change in transglycosylation rate (%) with time ((Fucα1,6)GlcNAc-mAb2 [2]; 4 h) [%]	Change in transglycosylation rate (%) with time ((Fucα1,6)GlcNAc-mAb2 [2]; 6 h) [%]	Change in transglycosylation rate (%) with time ((Fucα1,6)GlcNAc-mAb2 [2]; 24 h) [%]	Change in transglycosylation rate (%) with time ((Fucα1,6)GlcNAc-mAb2 [2]; 48 h) [%]
sialyl glycopeptide [SGP]	3.8	5.0	11.2	53.5	89.7	–	–	–	–	–
Endo-Rp W278F/N172D/F307Y (protein) MPSLQLQPDDKLAPVSFALKSMNELRDWTPDEKIKFNVSSVALQPRVKNALKPQLLLTHDMAGGYKEDKNIQGNNYKDIYNIQYWHLADTFVYFSHERVSIPPVNWTNACHRNGVKCLGTFLVEGNNQMHEMEALLHGPPLLNNTDDPMRLWSPYYADQLVAIAKHYGFDGWLFDIECEFFPFPTNPKFKAEELAKFLHYFKEKLHNEIPGSQLIWYDSMTNEGEIHWQNQLTWKNELFFKNTDGIFLNYWWKKEYPEMARRVAEGIGRSGLEVYFGTDVFGRHTYGGGGFKSYKGVKTAYSAMTSSALYGMAWTYEHFEKSEFEKMDRLFWCGGKYSDYPPPPPKNPDDEKEVESDDSEDELMYGHKKGIADTVESIPVPGTDWFVTNFDRGFGNRFYYRGKRLLSQPWSHLSHQAILPNKSYRNPEIYPTDQNIKITSSLDCDHGAFLGGTSLIIKGQRFNHRESHDVETEISIPLYKLSLDASKGCSLRYIYRTLLMKDVKLTVACHFSLKTNDSVNFFKVWQPDENFSFEYDDGMRATVTTENSTESRCFLLRTTEEDTGENDWITKTINVPAVPEGSQLYITRLEVSVVLDTAGLVGLVNQVIACLGYISIIPTINSGIKTDSSRIIQDLFWKDQKYTKIGKESLDDIAQEEVHRYYGTLNWENTANVVNAWEEIDYYNVFYKESDDSATRIFLGTAFCNQFRVSGLDIILSKLPKIVIEAVNKEGYISSSGSIDLSLN	–	–	–	–	–	12.0	19.0	24.9	76.5	93.1
Endo-Rp Y214F/F307Y/L306I (protein) MPSLQLQPDDKLAPVSFALKSMNELRDWTPDEKIKFNVSSVALQPRVKNALKPQLLLTHDMAGGYKEDKNIQGNNYKDIYNIQYWHLADTFVYFSHERVSIPPVNWTNACHRNGVKCLGTFLVEGNNQMHEMEALLHGPPLLNNTDDPMRLWSPYYADQLVAIAKHYGFDGWLFNIECEFFPFPTNPKFKAEELAKFLHYFKEKLHNEIPGSQLIWFDSMTNEGEIHWQNQLTWKNELFFKNTDGIFLNYWWKKEYPEMARRVAEGIGRSGLEVYFGTDVWGRHTYGGGGFKSYKGVKTAYSAMTSSAIYGMAWTYEHFEKSEFEKMDRLFWCGGKYSDYPPPPPKNPDDEKEVESDDSEDELMYGHKKGIADTVESIPVPGTDWFVTNFDRGFGNRFYYRGKRLLSQPWSHLSHQAILPNKSYRNPEIYPTDQNIKITSSLDCDHGAFLGGTSLIIKGQRFNHRESHDVETEISIPLYKLSLDASKGCSLRYIYRTLLMKDVKLTVACHFSLKTNDSVNFFKVWQPDENFSFEYDDGMRATVTTENSTESRCFLLRTTEEDTGENDWITKTINVPAVPEGSQLYITRLEVSVVLDTAGLVGLVNQVIACLGYISIIPTINSGIKTDSSRIIQDLFWKDQKYTKIGKESLDDIAQEEVHRYYGTLNWENTANVVNAWEEIDYYNVFYKESDDSATRIFLGTAFCNQFRVSGLDIILSKLPKIVIEAVNKEGYISSSGSIDLSLN	–	–	–	–	–	34.5	53.0	63.4	87.4	88.8
Endo-Rp W278F/N172D/A310D (protein) MPSLQLQPDDKLAPVSFALKSMNELRDWTPDEKIKFNVSSVALQPRVKNALKPQLLLTHDMAGGYKEDKNIQGNNYKDIYNIQYWHLADTFVYFSHERVSIPPVNWTNACHRNGVKCLGTFLVEGNNQMHEMEALLHGPPLLNNTDDPMRLWSPYYADQLVAIAKHYGFDGWLFDIECEFFPFPTNPKFKAEELAKFLHYFKEKLHNEIPGSQLIWYDSMTNEGEIHWQNQLTWKNELFFKNTDGIFLNYWWKKEYPEMARRVAEGIGRSGLEVYFGTDVFGRHTYGGGGFKSYKGVKTAYSAMTSSALFGMDWTYEHFEKSEFEKMDRLFWCGGKYSDYPPPPPKNPDDEKEVESDDSEDELMYGHKKGIADTVESIPVPGTDWFVTNFDRGFGNRFYYRGKRLLSQPWSHLSHQAILPNKSYRNPEIYPTDQNIKITSSLDCDHGAFLGGTSLIIKGQRFNHRESHDVETEISIPLYKLSLDASKGCSLRYIYRTLLMKDVKLTVACHFSLKTNDSVNFFKVWQPDENFSFEYDDGMRATVTTENSTESRCFLLRTTEEDTGENDWITKTINVPAVPEGSQLYITRLEVSVVLDTAGLVGLVNQVIACLGYISIIPTINSGIKTDSSRIIQDLFWKDQKYTKIGKESLDDIAQEEVHRYYGTLNWENTANVVNAWEEIDYYNVFYKESDDSATRIFLGTAFCNQFRVSGLDIILSKLPKIVIEAVNKEGYISSSGSIDLSLN	–	–	–	–	–	0.0	0.0	0.0	8.5	17.0
Endo-Rp W278F/N172D/F307H (protein) MPSLQLQPDDKLAPVSFALKSMNELRDWTPDEKIKFNVSSVALQPRVKNALKPQLLLTHDMAGGYKEDKNIQGNNYKDIYNIQYWHLADTFVYFSHERVSIPPVNWTNACHRNGVKCLGTFLVEGNNQMHEMEALLHGPPLLNNTDDPMRLWSPYYADQLVAIAKHYGFDGWLFDIECEFFPFPTNPKFKAEELAKFLHYFKEKLHNEIPGSQLIWYDSMTNEGEIHWQNQLTWKNELFFKNTDGIFLNYWWKKEYPEMARRVAEGIGRSGLEVYFGTDVFGRHTYGGGGFKSYKGVKTAYSAMTSSALHGMAWTYEHFEKSEFEKMDRLFWCGGKYSDYPPPPPKNPDDEKEVESDDSEDELMYGHKKGIADTVESIPVPGTDWFVTNFDRGFGNRFYYRGKRLLSQPWSHLSHQAILPNKSYRNPEIYPTDQNIKITSSLDCDHGAFLGGTSLIIKGQRFNHRESHDVETEISIPLYKLSLDASKGCSLRYIYRTLLMKDVKLTVACHFSLKTNDSVNFFKVWQPDENFSFEYDDGMRATVTTENSTESRCFLLRTTEEDTGENDWITKTINVPAVPEGSQLYITRLEVSVVLDTAGLVGLVNQVIACLGYISIIPTINSGIKTDSSRIIQDLFWKDQKYTKIGKESLDDIAQEEVHRYYGTLNWENTANVVNAWEEIDYYNVFYKESDDSATRIFLGTAFCNQFRVSGLDIILSKLPKIVIEAVNKEGYISSSGSIDLSLN	–	–	–	–	–	8.8	13.4	17.7	66.1	91.1
